Experimental findings from article PMC3322874 (The Journal of Biological Chemistry, 2012) are described below.

The series concerns the molecule itself. Put plainly: crystal structure.

B1: R182K-AfUGM (enzyme, Aspergillus fumigatus)
chain: THPDISVDVLVIGAGPTGLGAAKRLNQIDGPSWMIVDSNETPGGLASTDVTPEGFLYDVGGHVIFSHYKYFDDCLDEALPKEDDWYTHQRISYVRCQGQWVPYPFQNNISMLPKEEQVKCIDGMIDAALEARVANTKPKTFDEWIVRMMGTGIADLFMRPYNFKVWAVPTTKMQCAWLGEKVAAPNLKAVTTNVILGKTAGNWGPNATFRFPARGGTGGIWIAVANTLPKEKTRFGEKGKVTKVNANNKTVTLQDGTTIGYKKLVSTMAVDFLAEAMNDQELVGLTKQLFYSSTHVIGVGVRGSRPERIGDKCWLYFPEDNCPFYRATIFSNYSPYNQPEASKKLPTMQLADGSRPQSTEAKEGPYWSIMLEVSESSMKPVNQETILADCIQGLVNTEMLKPTDEIVSTYHRRFDHGYPTPTLEREGALTQILPKLQDKDIWSRGRFGSWRYEVGNQDHSFMLGVEAVDNIVNGAVELTLNYPDFVNGRQNTERRLVDGAQVFAKSKAQ
In the case of B1, the stoichiometry N – broadly, the number of molecules, sites or subunits per partner or assembly – stood at 4.

B2: R327K-AfUGM (enzyme, Aspergillus fumigatus)
chain: THPDISVDVLVIGAGPTGLGAAKRLNQIDGPSWMIVDSNETPGGLASTDVTPEGFLYDVGGHVIFSHYKYFDDCLDEALPKEDDWYTHQRISYVRCQGQWVPYPFQNNISMLPKEEQVKCIDGMIDAALEARVANTKPKTFDEWIVRMMGTGIADLFMRPYNFKVWAVPTTKMQCAWLGERVAAPNLKAVTTNVILGKTAGNWGPNATFRFPARGGTGGIWIAVANTLPKEKTRFGEKGKVTKVNANNKTVTLQDGTTIGYKKLVSTMAVDFLAEAMNDQELVGLTKQLFYSSTHVIGVGVRGSRPERIGDKCWLYFPEDNCPFYKATIFSNYSPYNQPEASKKLPTMQLADGSRPQSTEAKEGPYWSIMLEVSESSMKPVNQETILADCIQGLVNTEMLKPTDEIVSTYHRRFDHGYPTPTLEREGALTQILPKLQDKDIWSRGRFGSWRYEVGNQDHSFMLGVEAVDNIVNGAVELTLNYPDFVNGRQNTERRLVDGAQVFAKSKAQ
Turning to B2, the “stoichiometry N” value was 4.
